According to patent US20240052042A1 (Novartis, published 2024):

B1: YY06 (IgG format) (antibody, V domains shown)
VH: EVQLLESGGGLVQPGGSLRLSCAASGFTFSSYAISWVRQAPGKGLEWVSAISGSGGSTYYAESVKGRFTISRDNSKNTLYLQMNSLRAEDTAVYYCARPYLGDRRSYGFDHWGQGTLVTVSS
VL: QSALTQPASVSGSPGQSITISCTGTSSDVGSYNLVSWYQQHPGKAPKLMIYEGSKRPSGVSNRFSGSKSGNTASLTISGLQAEDEADYYCSSYGFHIVVVVFGGGTKLTVLG
notes: also called YY06_LALA
B2: YY07 (IgG format) (antibody, V domains shown)
VH: EVQLVQSGAEVKKPGESLKISCKGSGYSFTSYWISWVRQMPGKGLEWMGIIYPGTSYTRYSPSFQGQVTISADKSISTAYLQWSSLKASDTAMYYCARGSLPGLLGFDHWGQGTLVTVSS
VL: QSVLTQPPSVSGAPGQRVTISCTGSSSNIGAGYDVHWYQQLPGTAPKLLIYGNSNRPNGVPDRFSGSKSGTSASLAITGLQAEDEADYYCQSYDSPTSSSVFGGGTKLTVLG
notes: also called YY07_LALA

Key:
[1] = biological target: T1, human Natriuretic Peptide Receptor 1 (hNPR1) (human, UniProt P16066 33-473, limits assumed); test: ELISA, 1 µM IgG; design: unit not given here
T1 construct: pannings used NPR1-hFc; also called NPR1-hFc
T1 sequence: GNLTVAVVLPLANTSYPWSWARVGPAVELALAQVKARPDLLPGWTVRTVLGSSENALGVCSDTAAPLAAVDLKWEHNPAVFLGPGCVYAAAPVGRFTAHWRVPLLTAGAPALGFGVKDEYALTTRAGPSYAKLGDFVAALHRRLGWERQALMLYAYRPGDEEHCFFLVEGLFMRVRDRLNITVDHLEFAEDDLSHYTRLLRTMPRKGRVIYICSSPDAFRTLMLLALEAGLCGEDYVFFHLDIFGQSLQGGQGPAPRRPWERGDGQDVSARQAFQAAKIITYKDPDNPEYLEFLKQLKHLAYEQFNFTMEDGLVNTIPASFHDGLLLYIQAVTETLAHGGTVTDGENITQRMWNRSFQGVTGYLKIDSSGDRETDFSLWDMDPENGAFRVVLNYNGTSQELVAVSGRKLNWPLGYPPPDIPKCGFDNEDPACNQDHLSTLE

hNPR1-ANP complex = biological target: T2, hNPR1-ANP complex (human, UniProt P01160 124-151, limits assumed); test: ELISA, 1 µM IgG; design: unit not given here
T2 construct: hNPR1 antigen in the presence of ANP; also called hNPR1 + 100 nM ANP
T2 sequence: T1 sequence
T2 sequence (peptide): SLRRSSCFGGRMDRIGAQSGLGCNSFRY

rat NPR1 (rNPR1) = biological target: T3, rat NPR1 (rNPR1) (rat, UniProt P18910 29-469, limits assumed); test: ELISA, 1 µM IgG; design: unit not given here
T3 construct: Soluble antigen
T3 sequence: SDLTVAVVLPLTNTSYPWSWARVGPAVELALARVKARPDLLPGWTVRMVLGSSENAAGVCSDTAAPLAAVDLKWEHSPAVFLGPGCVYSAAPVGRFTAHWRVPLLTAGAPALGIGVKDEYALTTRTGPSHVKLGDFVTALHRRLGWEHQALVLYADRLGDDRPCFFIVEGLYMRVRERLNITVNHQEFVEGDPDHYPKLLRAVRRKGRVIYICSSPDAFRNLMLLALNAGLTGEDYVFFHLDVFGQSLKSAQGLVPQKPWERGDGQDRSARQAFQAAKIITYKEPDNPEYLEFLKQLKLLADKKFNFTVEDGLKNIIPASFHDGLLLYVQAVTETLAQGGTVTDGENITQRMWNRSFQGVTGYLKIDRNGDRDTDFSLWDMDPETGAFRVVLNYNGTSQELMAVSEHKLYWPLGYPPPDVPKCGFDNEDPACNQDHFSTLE

[2] = biological target: T4, human NPR3 (counter target) (human, UniProt P17342 27-481, limits assumed); test: ELISA, 1 µM IgG; design: unit not given here
T4 construct: Pannings used hNPR3-hFc; also called hNPR3; hNPR3-hFc
T4 sequence (looked up): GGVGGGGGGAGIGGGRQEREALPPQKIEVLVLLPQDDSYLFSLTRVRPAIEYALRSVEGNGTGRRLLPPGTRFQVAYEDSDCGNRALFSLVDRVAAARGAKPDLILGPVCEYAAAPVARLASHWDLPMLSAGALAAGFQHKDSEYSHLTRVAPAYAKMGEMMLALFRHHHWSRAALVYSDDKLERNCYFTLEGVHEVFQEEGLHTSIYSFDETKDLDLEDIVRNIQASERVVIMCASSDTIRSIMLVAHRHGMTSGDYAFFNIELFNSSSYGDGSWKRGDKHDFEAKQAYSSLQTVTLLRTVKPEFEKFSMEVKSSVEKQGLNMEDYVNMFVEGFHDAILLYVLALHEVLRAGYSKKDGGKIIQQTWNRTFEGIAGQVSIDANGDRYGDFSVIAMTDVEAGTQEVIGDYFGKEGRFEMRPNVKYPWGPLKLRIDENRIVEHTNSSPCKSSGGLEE

[3] = biological target: T5, human NPR3 in the presence of ANP (human, UniProt P17342 27-481; P01160 124-151, limits assumed); test: ELISA, 1 µM IgG; design: unit not given here
T5 construct: also called hNPR3 + 100 nM ANP
T5 sequence (looked up): T4 sequence (looked up)
T5 sequence (peptide, looked up): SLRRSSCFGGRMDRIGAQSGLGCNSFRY

[4] = biological target: T6, human NPR1 on CHO-K1 cells in the presence of ANP (human, UniProt P01160 124-151); test: flow cytometry, hNPR1 CHO-K1 cells, IgG
T6 construct: also called hNPR1 CHO K1 + 100 nM ANP
T6 sequence: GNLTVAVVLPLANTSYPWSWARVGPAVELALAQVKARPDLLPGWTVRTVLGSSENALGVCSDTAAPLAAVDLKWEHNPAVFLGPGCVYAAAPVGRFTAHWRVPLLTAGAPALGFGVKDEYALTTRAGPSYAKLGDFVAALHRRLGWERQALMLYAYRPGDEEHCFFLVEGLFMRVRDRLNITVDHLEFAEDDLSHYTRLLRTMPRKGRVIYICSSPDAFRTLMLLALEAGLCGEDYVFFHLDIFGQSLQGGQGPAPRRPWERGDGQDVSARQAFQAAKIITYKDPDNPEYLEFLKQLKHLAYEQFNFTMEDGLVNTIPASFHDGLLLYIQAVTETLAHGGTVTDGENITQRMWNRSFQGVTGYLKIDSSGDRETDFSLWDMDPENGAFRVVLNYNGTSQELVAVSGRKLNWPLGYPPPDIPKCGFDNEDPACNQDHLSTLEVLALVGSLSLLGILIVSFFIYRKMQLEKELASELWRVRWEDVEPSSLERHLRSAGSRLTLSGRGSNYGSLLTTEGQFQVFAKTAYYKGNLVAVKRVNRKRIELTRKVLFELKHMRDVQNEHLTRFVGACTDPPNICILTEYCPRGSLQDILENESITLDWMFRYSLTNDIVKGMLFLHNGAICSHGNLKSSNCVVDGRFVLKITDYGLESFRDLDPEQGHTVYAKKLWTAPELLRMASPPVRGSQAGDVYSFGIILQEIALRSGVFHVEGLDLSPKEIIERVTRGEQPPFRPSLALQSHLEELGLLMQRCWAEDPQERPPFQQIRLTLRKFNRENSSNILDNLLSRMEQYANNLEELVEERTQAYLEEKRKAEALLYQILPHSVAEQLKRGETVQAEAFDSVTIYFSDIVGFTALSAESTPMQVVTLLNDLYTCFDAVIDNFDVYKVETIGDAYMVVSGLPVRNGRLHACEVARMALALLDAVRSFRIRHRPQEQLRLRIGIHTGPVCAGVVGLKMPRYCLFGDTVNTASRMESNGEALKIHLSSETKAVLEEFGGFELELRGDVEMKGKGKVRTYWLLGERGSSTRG
T6 sequence (peptide): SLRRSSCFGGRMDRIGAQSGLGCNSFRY

[5] = biological target: T7, human NPR1 on CHO-K1 cells (human, UniProt P16066 33-1061); test: flow cytometry, hNPR1 CHO-K1 cells, IgG
T7 construct: also called hNPR1 CHO K1; human NPR1 expressing CHO-K1 cells
T7 sequence: T6 sequence

Binder | ELISA binding at 1 µM IgG [1] | ELISA binding at 1 µM IgG (hNPR1-ANP complex) | ELISA binding at 1 µM IgG (rat NPR1 (rNPR1)) | ELISA binding at 1 µM IgG [2] | ELISA binding at 1 µM IgG [3] | flow cytometry S/BG at 1 µM IgG [4] [S/BG] | flow cytometry S/BG at 1 µM IgG [5] [S/BG]
B1 | 91 | 102 | 3 | 6 | 6 | 18 | 26
B2 | 68 | 24 | 3 | 6 | 5 | 44 | 8
